Experimental findings from US20200129532 are described below.

The data set deals with T1, HA-tagged VDR (vitamin D receptor), wild type, P11473.
T1 chain: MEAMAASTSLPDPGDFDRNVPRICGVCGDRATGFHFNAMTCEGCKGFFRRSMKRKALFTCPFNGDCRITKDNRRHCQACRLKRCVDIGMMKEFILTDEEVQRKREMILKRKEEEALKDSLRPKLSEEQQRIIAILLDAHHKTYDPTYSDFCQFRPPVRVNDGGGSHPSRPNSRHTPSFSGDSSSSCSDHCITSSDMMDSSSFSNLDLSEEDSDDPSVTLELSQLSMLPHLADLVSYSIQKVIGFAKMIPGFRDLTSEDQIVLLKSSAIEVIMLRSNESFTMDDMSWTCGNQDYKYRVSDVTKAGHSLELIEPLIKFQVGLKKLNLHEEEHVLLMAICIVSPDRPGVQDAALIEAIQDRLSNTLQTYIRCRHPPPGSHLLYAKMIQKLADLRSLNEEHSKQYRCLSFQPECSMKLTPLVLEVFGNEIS

B1: PCAF, wild-type, overexpressed in 293T cells (protein)
chain: MSEAGGAGPGGCGAGAGAGAGPGALPPQPAALPPAPPQGSPCAAAAGGSGACGPATAVAAAGTAEGPGGGGSARIAVKKAQLRSAPRAKKLEKLGVYSACKAEESCKCNGWKNPNPSPTPPRADLQQIIVSLTESCRSCSHALAAHVSHLENVSEEEMNRLLGIVLDVEYLFTCVHKEEDADTKQVYFYLFKLLRKSILQRGKPVVEGSLEKKPPFEKPSIEQGVNNFVQYKFSHLPAKERQTIVELAKMFLNRINYWHLEAPSQRRLRSPNDDISGYKENYTRWLCYCNVPQFCDSLPRYETTQVFGRTLLRSVFTVMRRQLLEQARQEKDKLPLEKRTLILTHFPKFLSMLEEEVYSQNSPIWDQDFLSASSRTSQLGIQTVINPPPVAGTISYNSTSSSLEQPNAGSSSPACKASSGLEANPGEKRKMTDSHVLEEAKKPRVMGDIPMELINEVMSTITDPAAMLGPETNFLSAHSARDEAARLEERRGVIEFHVVGNSLNQKPNKKILMWLVGLQNVFSHQLPRMPKEYITRLVFDPKHKTLALIKDGRVIGGICFRMFPSQGFTEIVFCAVTSNEQVKGYGTHLMNHLKEYHIKHDILNFLTYADEYAIGYFKKQGFSKEIKIPKTKYVGYIKDYEGATLMGCELNPRIPYTEFSVIIKKQKEIIKKLIERKQAQIRKVYPGLSCFKDGVRQIPIESIPGIRETGWKPSGKEKSKEPRDPDQLYSTLKSILQQVKSHQSAWPFMEPVKRTEAPGYYEVIRFPMDLKTMSERLKNRYYVSKKLFMADLQRVFTNCKEYNPPESEYYKCANILEKFFFSKIKEAGLIDK
Consider B1, for which the VDR acetylation result is reported as “VDR acetylation indeed increased when expressed together with PCAF”.
